First the molecules themselves.
B3: His6-tagged Sly1p (natural protein)
chain: MAVEEIASRKDISLRDMQISAILKMLFLNKDLNNNDNITTITDDIFNQQEIIWKVLILDIKSTATISSVLRVNDLLKAGITVHSLIKQDRSPLPDVPAIYFVSPTKENIDIIVNDLKSDKYSEFYINFTSSLPRNLLEDLAQQVSITGKSDKIKQVYDQYLDFIVTEPELFSLEISNAYLTLNDPKTTEEEITGLCANIADGLFNTVLTINSIPIIRAAKGGPAEIIAEKLGTKLRDFVINTNSSSTSTLQGNDSLERGVLIILDRNIDFASMFSHSWIYQCMVFDIFKLSRNTVTIPLESKENGTDNTTAKPLATKKYDIEPNDFFWMENSHLPFPEAAENVEAALNTYKEEAAEITRKTGVTNISDLDPNSNNDTVQIQEVVKKLPELTAKKNTIDTHMNIFAALLSQLESKSLDTFFEVEQDPGSTKTRSRFLDILKDGKTNNLEDKLRSFIVLYLTSTTGLPKDFVQNVENYFKENDYDINALKYVYKLREFMQLSNMSLQNKSLEDGSDSAFKPSNLTLSGIYGLTEGKLQGGVGSLISGIKKLLPEKKTIPITNVVDAIMDPLNSSQKNLETTDSYLYIDPKITRGSHTRKPKRQSYNKSLVFVVGGGNYLEYQNLQEWAHSQLHNPKKVMYGSTAITTPAEFLNEISRLGASNSSNNDA

In the assay “His6-tagged Sly1p” the target is B3. In words: co-sedimentation.
The target of assay [1] is T1, mixed 3Q-SNARE set Sed5p/Gos1p/Bet1p reconstituted on proteoliposomes (S. cerevisiae, UniProt Q01590;P38736;P22804).
T1 sequence 1: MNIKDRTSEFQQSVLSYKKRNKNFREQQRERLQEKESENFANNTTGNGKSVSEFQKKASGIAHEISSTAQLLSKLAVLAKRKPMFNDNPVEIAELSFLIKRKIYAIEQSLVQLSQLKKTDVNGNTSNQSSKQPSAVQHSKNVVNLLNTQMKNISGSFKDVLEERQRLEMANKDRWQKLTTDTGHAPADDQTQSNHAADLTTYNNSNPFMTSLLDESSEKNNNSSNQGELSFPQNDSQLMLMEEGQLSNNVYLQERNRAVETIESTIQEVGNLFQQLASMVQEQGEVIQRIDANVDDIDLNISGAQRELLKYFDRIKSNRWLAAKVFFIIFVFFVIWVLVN
T1 sequence 2: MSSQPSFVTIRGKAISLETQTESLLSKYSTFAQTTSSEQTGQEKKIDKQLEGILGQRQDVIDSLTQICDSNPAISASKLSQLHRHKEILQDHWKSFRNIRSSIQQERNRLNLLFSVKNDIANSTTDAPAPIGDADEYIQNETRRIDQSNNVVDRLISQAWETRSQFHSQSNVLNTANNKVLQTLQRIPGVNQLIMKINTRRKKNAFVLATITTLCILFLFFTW
T1 sequence 3: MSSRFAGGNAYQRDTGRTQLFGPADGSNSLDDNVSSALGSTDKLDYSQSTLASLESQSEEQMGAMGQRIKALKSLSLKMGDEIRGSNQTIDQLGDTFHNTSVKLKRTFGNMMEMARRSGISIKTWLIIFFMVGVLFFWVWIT
Put plainly: co-sedimentation.

Assay [2] deals with mixed 3Q-SNARE set Sed5p/Vti1p/Vam7p reconstituted on proteoliposomes (S. cerevisiae, UniProt Q01590;Q04338;P32912). In words: co-sedimentation.
Assay [3] deals with mixed 3Q-SNARE set Sed5p/Vti1p/Bet1p reconstituted on proteoliposomes (S. cerevisiae, UniProt Q01590;Q04338;P22804). In words: co-sedimentation.
Assay [4] concerns the target T2, ER-Golgi 3Q-SNARE set Sed5p/Bos1p/Bet1p reconstituted on proteoliposomes (S. cerevisiae, UniProt Q01590;P25385;P22804).
T2 sequence 1: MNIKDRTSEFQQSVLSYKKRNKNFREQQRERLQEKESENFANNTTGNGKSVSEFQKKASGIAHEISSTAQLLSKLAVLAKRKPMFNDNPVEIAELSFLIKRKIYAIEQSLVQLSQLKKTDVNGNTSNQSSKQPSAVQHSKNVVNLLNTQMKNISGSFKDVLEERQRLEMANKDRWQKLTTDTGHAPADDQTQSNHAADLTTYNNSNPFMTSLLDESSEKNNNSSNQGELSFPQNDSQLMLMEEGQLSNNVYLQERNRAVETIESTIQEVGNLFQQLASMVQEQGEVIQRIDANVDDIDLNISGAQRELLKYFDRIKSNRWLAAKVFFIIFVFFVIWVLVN
T2 sequence 2: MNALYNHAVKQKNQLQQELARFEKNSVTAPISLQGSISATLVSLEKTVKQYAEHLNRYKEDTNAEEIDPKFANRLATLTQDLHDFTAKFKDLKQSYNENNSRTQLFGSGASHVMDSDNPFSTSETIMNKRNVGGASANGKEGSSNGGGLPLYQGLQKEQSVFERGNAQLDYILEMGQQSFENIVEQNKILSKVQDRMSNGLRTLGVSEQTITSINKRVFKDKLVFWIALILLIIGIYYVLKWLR
T2 sequence 3: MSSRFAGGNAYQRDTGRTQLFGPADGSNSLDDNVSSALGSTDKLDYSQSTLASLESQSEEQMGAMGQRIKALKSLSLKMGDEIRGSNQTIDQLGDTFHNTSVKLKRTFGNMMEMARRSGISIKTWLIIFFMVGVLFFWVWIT
Put plainly: co-sedimentation.

The target of assay [5] is T3, pre-assembled ER-Golgi cis-QabcR-SNARE complex GST-Sec22p/Sed5p/Bos1p/Bet1p (S. cerevisiae, UniProt P22214;Q01590;P25385;P22804).
T3 sequence 1: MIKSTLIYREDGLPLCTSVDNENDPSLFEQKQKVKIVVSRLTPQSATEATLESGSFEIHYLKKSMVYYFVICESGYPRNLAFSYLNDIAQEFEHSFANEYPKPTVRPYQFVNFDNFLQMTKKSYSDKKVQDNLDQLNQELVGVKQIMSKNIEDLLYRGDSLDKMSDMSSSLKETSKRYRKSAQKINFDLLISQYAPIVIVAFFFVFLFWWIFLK
T3 sequence 2: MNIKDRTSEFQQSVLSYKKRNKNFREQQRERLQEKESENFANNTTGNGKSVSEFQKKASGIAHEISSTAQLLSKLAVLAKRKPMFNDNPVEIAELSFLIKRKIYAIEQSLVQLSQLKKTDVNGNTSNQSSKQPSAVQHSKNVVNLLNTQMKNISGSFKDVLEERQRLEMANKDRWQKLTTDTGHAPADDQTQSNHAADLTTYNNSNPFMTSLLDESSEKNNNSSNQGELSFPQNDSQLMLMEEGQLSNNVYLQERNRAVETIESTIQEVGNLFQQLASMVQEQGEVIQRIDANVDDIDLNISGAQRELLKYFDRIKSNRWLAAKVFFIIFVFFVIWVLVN
T3 sequence 3: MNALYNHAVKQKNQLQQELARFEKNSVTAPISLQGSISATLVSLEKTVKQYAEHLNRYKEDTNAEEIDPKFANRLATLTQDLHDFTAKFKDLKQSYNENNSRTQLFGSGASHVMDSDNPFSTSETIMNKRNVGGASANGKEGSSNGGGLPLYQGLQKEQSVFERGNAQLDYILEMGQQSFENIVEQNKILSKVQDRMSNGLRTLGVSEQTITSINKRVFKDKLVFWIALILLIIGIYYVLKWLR
T3 sequence 4: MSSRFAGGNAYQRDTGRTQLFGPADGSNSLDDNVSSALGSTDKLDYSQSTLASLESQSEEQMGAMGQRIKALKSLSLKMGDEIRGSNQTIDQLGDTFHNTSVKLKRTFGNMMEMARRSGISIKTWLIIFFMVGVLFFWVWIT
Put plainly: pull-down.

The target of assay [6] is T4, pre-assembled intra-Golgi cis-QabcR-SNARE complex GST-Sec22p/Sed5p/Gos1p/Sft1p (S. cerevisiae, UniProt P22214;Q01590;P38736;P43682).
T4 sequence 1: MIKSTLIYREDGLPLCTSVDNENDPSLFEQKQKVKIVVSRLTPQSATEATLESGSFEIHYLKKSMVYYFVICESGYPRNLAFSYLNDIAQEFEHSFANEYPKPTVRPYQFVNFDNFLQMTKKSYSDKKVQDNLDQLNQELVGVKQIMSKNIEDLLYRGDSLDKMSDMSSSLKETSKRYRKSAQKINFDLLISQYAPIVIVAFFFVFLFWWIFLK
T4 sequence 2: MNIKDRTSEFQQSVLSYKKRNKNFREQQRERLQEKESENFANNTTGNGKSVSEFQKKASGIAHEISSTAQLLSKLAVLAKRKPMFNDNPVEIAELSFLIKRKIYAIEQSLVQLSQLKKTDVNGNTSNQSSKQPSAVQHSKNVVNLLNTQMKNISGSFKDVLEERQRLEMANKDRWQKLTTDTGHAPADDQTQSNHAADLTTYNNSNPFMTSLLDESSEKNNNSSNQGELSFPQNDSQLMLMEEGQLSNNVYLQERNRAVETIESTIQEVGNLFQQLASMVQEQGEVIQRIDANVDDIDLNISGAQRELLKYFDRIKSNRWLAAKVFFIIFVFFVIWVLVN
T4 sequence 3: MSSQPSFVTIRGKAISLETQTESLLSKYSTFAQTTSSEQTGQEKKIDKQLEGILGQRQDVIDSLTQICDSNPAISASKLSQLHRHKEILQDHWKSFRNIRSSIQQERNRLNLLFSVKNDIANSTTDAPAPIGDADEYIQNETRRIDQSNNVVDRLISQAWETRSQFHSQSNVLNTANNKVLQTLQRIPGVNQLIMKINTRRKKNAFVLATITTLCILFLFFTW
T4 sequence 4: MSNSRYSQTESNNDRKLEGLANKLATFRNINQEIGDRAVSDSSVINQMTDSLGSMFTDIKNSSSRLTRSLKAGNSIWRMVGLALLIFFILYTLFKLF
Put plainly: pull-down.

Sequence of mixed 3Q-SNARE set Sed5p/Vti1p/Vam7p reconstituted on proteoliposomes (P32912 whole entry, one chain of several): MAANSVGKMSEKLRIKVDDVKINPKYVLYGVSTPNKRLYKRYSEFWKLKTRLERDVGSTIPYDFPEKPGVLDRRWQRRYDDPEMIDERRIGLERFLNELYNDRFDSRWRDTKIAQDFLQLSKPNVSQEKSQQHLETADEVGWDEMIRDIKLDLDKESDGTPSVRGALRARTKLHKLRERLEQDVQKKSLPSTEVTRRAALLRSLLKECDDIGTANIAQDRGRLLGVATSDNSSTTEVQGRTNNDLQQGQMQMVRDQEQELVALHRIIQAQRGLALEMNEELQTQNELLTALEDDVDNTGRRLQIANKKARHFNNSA

B1: intra-Golgi 3Q-SNARE set Sed5p/Gos1p/Sft1p reconstituted on proteoliposomes (complex)
chain 1: MNIKDRTSEFQQSVLSYKKRNKNFREQQRERLQEKESENFANNTTGNGKSVSEFQKKASGIAHEISSTAQLLSKLAVLAKRKPMFNDNPVEIAELSFLIKRKIYAIEQSLVQLSQLKKTDVNGNTSNQSSKQPSAVQHSKNVVNLLNTQMKNISGSFKDVLEERQRLEMANKDRWQKLTTDTGHAPADDQTQSNHAADLTTYNNSNPFMTSLLDESSEKNNNSSNQGELSFPQNDSQLMLMEEGQLSNNVYLQERNRAVETIESTIQEVGNLFQQLASMVQEQGEVIQRIDANVDDIDLNISGAQRELLKYFDRIKSNRWLAAKVFFIIFVFFVIWVLVN
chain 2: MSSQPSFVTIRGKAISLETQTESLLSKYSTFAQTTSSEQTGQEKKIDKQLEGILGQRQDVIDSLTQICDSNPAISASKLSQLHRHKEILQDHWKSFRNIRSSIQQERNRLNLLFSVKNDIANSTTDAPAPIGDADEYIQNETRRIDQSNNVVDRLISQAWETRSQFHSQSNVLNTANNKVLQTLQRIPGVNQLIMKINTRRKKNAFVLATITTLCILFLFFTW
chain 3: MSNSRYSQTESNNDRKLEGLANKLATFRNINQEIGDRAVSDSSVINQMTDSLGSMFTDIKNSSSRLTRSLKAGNSIWRMVGLALLIFFILYTLFKLF
Regarding B1, the binding result with His6-tagged Sly1p is given as “binds”.

B2: mixed 3Q-SNARE set Sed5p/Vti1p/Tlg1p reconstituted on proteoliposomes (complex)
chain 1: MNIKDRTSEFQQSVLSYKKRNKNFREQQRERLQEKESENFANNTTGNGKSVSEFQKKASGIAHEISSTAQLLSKLAVLAKRKPMFNDNPVEIAELSFLIKRKIYAIEQSLVQLSQLKKTDVNGNTSNQSSKQPSAVQHSKNVVNLLNTQMKNISGSFKDVLEERQRLEMANKDRWQKLTTDTGHAPADDQTQSNHAADLTTYNNSNPFMTSLLDESSEKNNNSSNQGELSFPQNDSQLMLMEEGQLSNNVYLQERNRAVETIESTIQEVGNLFQQLASMVQEQGEVIQRIDANVDDIDLNISGAQRELLKYFDRIKSNRWLAAKVFFIIFVFFVIWVLVN
chain 2: MSSLLISYESDFKTTLEQAKASLAEAPSQPLSQRNTTLKHVEQQQDELFDLLDQMDVEVNNSIGDASERATYKAKLREWKKTIQSDIKRPLQSLVDSGDRDRLFGDLNASNIDDDQRQQLLSNHAILQKSGDRLKDASRIANETEGIGSQIMMDLRSQRETLENARQTLFQADSYVDKSIKTLKTMTRRLVANKFISYAIIAVLILLILLVLFSKFK
chain 3: […]
Consider B2, for which the binding result with His6-tagged Sly1p was “binds”.

With B3, the binding result in assay [1], in assay [2], in assay [3], in assay [4], in assay [5] and in assay [6] was “binds” throughout.

The record behind these values is publication PMC3940976 (Scientific Reports, 2014).
